Reference: patent publication US11015206B2, “Compositions and methods comprising sequences having hydroxyphenylpyruvate dioxygenase (HPPD) activity” (PIONEER HI-BRED INTERNATIONAL, INC., priority 2014, dated 2021)

Columns and labels:
Format in all cases: biochemical, Z. mays
[1] = tested on: 4-hydroxyphenylpyruvate dioxygenase (HPPD); assay: HPPD activity coupled assay with HGD; substrate saturation kinetic parameters (kcat, KM)
Procedure: Wild type and shuffled variant genes were cloned into pVER7062, a modified version of pET24a(+)(Novagen), which places six histidine residues at the N-terminus of the expressed protein. Vectors were electroporated into E. coli host strain BL21(DE3). Cells were grown at 30 C in rich medium such as 2×YT containing the selection antibiotic, kanamycin. At a density of about 0.6 OD600, IPTG was added to 0.2 mM, the temperature was reduced to 16 C and growth continued for another 24 hrs. Cells were harvested by centrifugation and stored at −80 C. Cell pellets were lysed in BPER (Pierce) protein extraction reagent containing 0.2 mg/ml lysozyme, 1 mM dithiothreitol, protease inhibitor cocktail (Sigma, bacterial cocktail) and endonuclease. Insoluble cellular debris was removed by centrifugation. HPPD protein was purified from the soluble protein solution by affinity chromatography on the nickel form of nitrilotriacetic acid (Ni-NTA) resin (Qiagen). Protein concentrations were determined by the Bradford method, as supplied by Bio-Rad.
HPPD catalyzes the conversion of 4-hydroxyphenylpyruvate (HPP) to homogentisate (FIG. 17). […] However, the product of the ensuing reaction in tyrosine metabolism, maleylacetoacetate, absorbs strongly at 320 nm. Furthermore, the enzyme catalyzing that reaction is also a dioxygenase having similar mechanism and buffer requirements as HPPD, making homogentisate dioxygenase (HGD) an ideal partner in a coupled assay, as shown.
The HDG gene from Pseudomonas aeruginosa (Amaya (2004) Arch Biochem Biophys 421, 135-142) was cloned into pVER7062 and electroporated into E. coli strain BL21(DE3). The enzyme was produced by methods similar to those described for HPPD. The purified enzyme has a KM for homogentisate of 23 μM and a kcat of 100/sec, properties highly suited for instantly converting the homogentisate produced by HPPD to maleylacetoacetate.
HPPD activity was measured by placing an aliquot (e.g., 6 μl) of the substrate HPP at 50-fold the desired final concentration into the wells of a low UV-absorbing assay plate. Reactions were started by adding a mixture (e.g., 294 μl) containing 25 mM Hepes, pH 7, 2 mM ascorbate, 10 μM FeSO4, 1 to 100 μM HPP, 50 nM HGD and 5 to 240 nM HPPD. Absorbance at 320 nm was monitored continuously in a plate-reading spectrophotometer (Spectramax, Molecular Devices).
The catalytic performance of wild-type HPPD and variants generated by shuffling was assessed by determining the substrate saturation kinetic parameters. The Michaelis-Menten kinetics protocol of the Spectramax software was customized for HPP concentrations ranging from 3.33 μM to 100 μM. Reaction rates were measured as described above for each concentration of HPP. The software returns values of KM and Vmax using the Lineweaver-Burke transformation of the Michaelis-Menten equation.

[2] = tested on: 4-hydroxyphenylpyruvate dioxygenase (HPPD); assay: OFF rate ratio: release of inhibitor from pre-formed enzyme-inhibitor complex
Outline: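 HPPD (7.2 μM) pre-incubated 1 h at RT with inhibitor (8 μM), then diluted into 25 mM Hepes pH 7, 2 mM ascorbate, 10 μM FeSO4, 100 μM HPP, 50 nM HGD; A320 followed 12 min. Ratio = steady-state rate with inhibitor over initial rate of inhibitor-free enzyme.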

[3] = tested on: 4-hydroxyphenylpyruvate dioxygenase (HPPD); assay: Insensitivity parameter (ON × OFF) and trait fitness (ON × OFF × kcat/KM or × kcat); conditions: for Fitness Fold vs Zm wt / Insensitivity parameter, ON × OFF / Insensitivity ON × OFF, Fold vs wt: mesotrione; for Insensitivity parameter, ON × OFF: Table 2; for Insensitivity ON × OFF, Fold vs wt: vs maize wild type
Outline: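 Calculated, not measured directly: ON rate ratio × OFF rate ratio gives an insensitivity parameter serving as a KD surrogate.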

[4] = tested on: 4-hydroxyphenylpyruvate dioxygenase (HPPD); assay: ON rate ratio: HPPD reaction rate with vs without inhibitor in the 70 to 90 second interval; conditions: for ON rate ratio: mesotrione
Outline: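 Time courses of HPPD reactions, 60 or 120 nM enzyme with 100 μM HPP substrate, run with and without 4 μM inhibitor (e.g. mesotrione, tembotrione). Value is the rate with inhibitor over rate without, taken over 70–90 s; higher ratio reflects slower kON.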

[5] = tested on: 4-hydroxyphenylpyruvate dioxygenase (HPPD); assay: Estimate of kcat from initial rate at saturating hydroxyphenylpyruvate without inhibitor (ON rate ratio assay); conditions: Megatable 2; single substitutions, positions numbered per SEQ ID NO:1
Outline: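 Reactions used 60 or 120 nM HPPD and saturating 100 μM hydroxyphenylpyruvate without inhibitor. kcat was estimated from the initial rate at the known enzyme concentration.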

[6] = Table 2, E. coli purified proteins

| Molecule | kcat ([1]; text b374) | time span to reach the steady state (dissociation from inhibitor) ([2]; mesotrione, enzyme 240 nM) [s] | Km [1, 6] [µM] | kcat [1, 6] [s⁻¹] | Fitness Fold vs Zm wt [3] | Insensitivity parameter, ON × OFF [3] | Insensitivity ON × OFF, Fold vs wt [3] | OFF rate ratio ([2]; mesotrione) | ON rate ratio [4] | kcat [5] [s⁻¹] | ON × OFF (product of ON ratio and OFF ratio) ([3]; Megatable 2) | ON × OFF kcat (product of ON ratio, OFF ratio and kcat) ([3]; Megatable 2) | Fold vs. wt (ON × OFF versus wild-type SEQ ID NO:1) ([3]; Megatable 2, fold of ON × OFF) | Fold vs. wt (ON × OFF × kcat versus wild-type SEQ ID NO:1) ([3]; Megatable 2, fold of ON × OFF × kcat) | OFF Rat. (OFF ratio parameter) ([2]; Megatable 2) | ON Rat. (ON ratio parameter) ([4]; Megatable 2) |
| --- | --- | --- | --- | --- | --- | --- | --- | --- | --- | --- | --- | --- | --- | --- | --- | --- |
| SEQ ID NO:78: improved shuffled variant of maize HPPD (protein, Zea mays variant form created by artificial means.) MGPTPTATAAGAAVAAASAAEQAAFRLVGHRNFVRFNPRSDRFHTLAFHHVELWCADAASAAGRFSFALGAPLAARSDLSTGNSAHASLLLRSGSLSFLFTAPYAHGADAATAALPSFSAAAARRFAADHGLAVRAVALRVADAEDAFRASVAAGARPAFGPVDLGRGFRLAEVELYGDVVLRYVSYPDGAAGEPFLPGFEGVASPGAADYGLSRFDHIVGNVPELAPAAAYFAGFTGFHEFAEFTTEDVGTAESGLNSMALANNSENVLLPLNEPVHGTKRRSQIQTFLDHHGGPGVQHIALASDDVLRTLREMQARSAMGGFEFLPPPPSDYYDGVRRCAGDVLTEAQINECQELGVMVDRDDQGVLLQIFTKPVGDRPTFFLEIIQRIGCMEKDEKGQEYQKGGCGGFGKGNFGQLFKSIEDYEKSLEAKQAAAAATAQGS | about 220 min^−1 | 80 | – | – | – | – | – | – | – | – | – | – | – | – | – | – |
| R6-9075: shuffled maize HPPD variant 9075, SEQ ID NO:79; 9070 with R316 changed to Q (protein, Zea mays variant form created by artificial means., 9070 with R316 changed to Q) MGPTPTATAAGAAVAAASAAEQAAFRLVGHRNFVRFNPRSDRFQTLAFHHVELWCADAASAAGRFSFALGVPLAARSDLSTGNSAHASLLLRSGSLSLLFTAPYAHGADAATAALPSFSAAAARRFAADHGLAVRAVALRVADAEDAFRASVAAGARPAFGPVDLGRGFRLAEVELYGDVVLRYVSYPDGAAGEPFLPGFEGVASPGAADYGLSRFDHIVGNVPELAPAAAYMAGFTGFHEFAEFTTEDVGTTESGLNSMALANNSENVLLPLNEPVHGTKRRSQIQTFLDHHGGPGVQHIALASDDVLRTLREMQARSAMGGFEFLPPPLSDYYDGVRRCAGDVLTEAQINECQELGVMVDRDDQGVLLQIFTKPVGDRPTFFLEIIQRIGCMEKDEKGQEYQKGGCGGFGKGNFGQLFKSIEDYEKSLEAKQAAAAATAQGS | – | – | 4 | 1.9 | 6.4 | 0.46 | 7.6 | 0.68 | 0.68 | – | – | – | – | – | – | – |
| SEQ ID NO 2 (protein, Zea mays variant form created by artificial means.) MGPTPTATAAGAAVAAASAAEQAAFRLVGHRNFVRFNPRSDRFQTLAFHHVELWCADAASAAGRFSFALGVPLAARSDLSTGNSAHASLLLRSGSLSLLFTAPYAHGADAATAALPSFSAAAARRFAADHGLAVRAVALRVADAEDAFRASVAAGARPAFGPVDLGRGFRLAEVELYGDVVLRYVSYPDGAAGEPFLPGFEGVASPGAADYGLSRFDHIVGNVPELAPAAAYMAGFTGFHEFAEFTTEDVGTTESGLNSMALANNSENVLLPLNEPVHGTKRRSQIQTFLDHHGGPGVQHIALASDDVLRTLREMRARSAMGGFEFLPPPLSDYYDGVRRCAGDVLTEAQINECQELGVMVDRDDQGVLLQIFTKPVGDRPTFFLEIIQRIGCMEKDEKGQEYQKGGCGGFGKGNFGQLFKSIEDYEKSLEAKQAAAAATAQGS | – | – | – | – | – | – | – | – | – | 0.57 | 0.15 | 5.25 | 30.0 | 4.90 | 0.21 | 0.74 |
| R8-1973: Round 8, variant 1973 (SEQ ID NO:8), 26 amino acid substitutions relative to native maize HPPD (protein, Zea mays variant form created by artificial means.) MGPTPTATAAGAAVAAASAAEQAAFRLVGHRNFVRFNPRSDRFQTLAFHHVELWCADAASAAGRFSFALGVPLAARSDLSTGNSAHASLLLRSGSLSLLFTAPYAHGADAATAALPSFSAAAARRFAADHGLAVRAVALRVADAEDAFRASVAAGARPAFGPVDLGRGFRLAEVELYGDVVLRYVSYPDGAAGEPFLPGFEGVASPGAADLGLNRFDHIVGNVPELAPAAAYMAGFTGFHEFAEFTTEDVGTTESGLNSMALANNSENVLLPLNEPVHGTKRRSQIQTFLDHHGGPGVQHIALASDDVLRTLREMRARSAMGGFEFLPPPLSDYYDGVRKCAGDVLTEAQINECQELGVMVDRDDEGVLLQIFTKPVGDRPTFFLEIIQRIGCREKDEKGQEYQKGGCGGFGKGNFGQLFKSIEDYEKSLEKKRAAAAATAQGS | – | – | 2 | 1.18 | 12.2 | 0.73 | 11.9 | 1.00 | 0.73 | – | – | – | – | – | – | – |
| G. max wt: wild-type HPPD enzyme from soybean (protein, Glycine max, wild-type HPPD enzyme from soybean) MPMYTPSLSAPSSNHIQPSVTLPLYITTTKLNLKQQHHTTPMPIPMCNEIQAQAQAQAQPGFKLVGFKNFVRTNPKSDRFQVNRFHHIEFWCTDATNASRRFSWGLGMPIVAKSDLSTGNQIHASYLLRSGDLSFLFSAPYSPSLSAGSSAASSASIPSFDAATCLAFAAKHGFGVRAIALEVADAEAAFSASVAKGAEPASPPVLVDDRTGFAEVRLYGDVVLRYVSYKDAAPQAPHADPSRWFLPGFEAAASSSSFPELDYGIRRLDHAVGNVPELAPAVRYLKGFSGFHEFAEFTAEDVGTSESGLNSVVLANNSETVLLPLNEPVYGTKRKSQIETYLEHNEGAGVQHLALVTHDIFTTLREMRKRSFLGGFEFMPSPPPTYYANLHNRAADVLTVDQIKQCEELGILVDRDDQGTLLQIFTKPVGDRPTIFIEIIQRIGCMVEDEEGKVYQKGACGGFGKGNFSELFKSIEEYEKTLEAKRTA | – | – | 3 | 1.67 | 0.02 | 0.0014 | 0.023 | 0.007 | 0.20 | – | – | – | – | – | – | – |
